The results in this text go back to patent publication US20260227403A1 (HENRY M JACKSON FOUNDATION FOR THE ADVANCEMENT OF MILITARY …, published 2026).

The assay addresses T1, ERG3 (pCMV-ERG3 plasmid, Exons 5-16, NM_001136154) (UniProt P11308-3 40-486).
T1 construct: Expressed in HEK-293 cells and tested as cell lysate on an immunoblot; also called ETS Transcription Factor ERG
T1 sequence (looked up): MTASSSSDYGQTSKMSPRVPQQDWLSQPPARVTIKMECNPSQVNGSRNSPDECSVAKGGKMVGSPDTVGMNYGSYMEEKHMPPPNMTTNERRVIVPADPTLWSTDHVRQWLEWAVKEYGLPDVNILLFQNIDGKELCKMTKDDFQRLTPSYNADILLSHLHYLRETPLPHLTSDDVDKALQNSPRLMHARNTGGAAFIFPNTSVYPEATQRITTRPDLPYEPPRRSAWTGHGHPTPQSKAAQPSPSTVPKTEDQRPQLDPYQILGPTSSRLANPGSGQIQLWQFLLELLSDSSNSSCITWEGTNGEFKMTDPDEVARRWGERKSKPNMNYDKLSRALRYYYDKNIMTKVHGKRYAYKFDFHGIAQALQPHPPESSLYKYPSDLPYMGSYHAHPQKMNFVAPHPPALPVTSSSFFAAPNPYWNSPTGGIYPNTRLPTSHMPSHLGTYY
Kind of assay: immunoblot of cell lysates (HEK-293 2 µg per lane) probed with 29E4; the protein is shown present in panel C. How it is done: Immunoblots using antibodies against ETV1 (A and H), ETV4 (B), ERG (C), SPDEF (D), FLI1 (E), FLAG (F), and GAPDH (G), as a loading control. […] PC3 cells were transfected with 25 nM non-targeting (NT) siRNA or ETV-1 siRNA oligos (lanes 1 and 2, respectively). […] were infected with either a control vector (lane 10) or adenoviral vector expressing FLI1 (lanes 11).
Cell lysates were then cleared by centrifugation at 10,000×g for 15 minutes at 4° C. and transferred to fresh tubes. Protein concentration was measured using Protein Assay Reagent (Bio-Rad, Hercules, CA). […] Separated proteins were transferred onto PVDF membranes using a Trans-Blot SD semi-dry transfer cell (BioRad) at 25 V for 90 minutes. Membranes were blocked in blocking buffer (Tris buffered saline with 0.25% Tween 20 (TBST) containing 1% BSA) for one hour at room temperature before incubation with primary antibodies (1 ng/mL) for 12 hours at 4° C. Membranes were then washed with wash buffer (TBST) in three ten-minute washes before treatment with IRDye 680RD conjugated goat anti-rabbit or IRDye 800 RD conjugated goat anti-mouse secondary antibodies (LI-COR Biosciences, Lincoln, NE) for three hours at room temperature.

B1: ETV1 rabbit monoclonal antibody (29E4) (antibody, V domains shown)
VH: QELEESGGDLVKPGASLTLTCTASGFFFSAENHICWVRQAPGKGLEWIGCVYIGSYVGGSGDPYYASWAKGRFTISKTSSTTVTLQMSSLTAADTATYFCARDLGSLWGPGTLVTVSS
VL: DVVMTQTASSVSAAVGGTVTIACQSSQSVYDNNNLAWFQQKPGQPPKRLIYSASTLASGVSSRFKGSGYGTQFTLTISDVQCDDAATYYCVGAFSGYIFVFGGGTEVVVK
notes: constant regions are not; also called 29E4 mAb; ETV1 29E4 mAb
As to B1, the binding result is recorded as “no binding”.
